Results as given in patent publication US20120277164A1 (IMPERIAL INNOVATIONS, published 2012).
Square brackets hold non-standard residues; d marks the D form. Ends that are not written are not given here. * marks the point of attachment. Fmoc = O=C(OCC1c2ccccc2-c2ccccc21)*; Cha = N[C@@H](CC1CCCCC1)C(=O)O; ClZ = O=C(OCc1ccccc1Cl)*; Cbz = O=C(OCc1ccccc1)*; Bz = O=C(c1ccccc1)*; Myr = myristyl

T1: Gadd45β/MKK7 complex (biotin-hGadd45β with coated GST-MKK7, ELISA format) (human, UniProt O75293 1-160; O14733 1-419, biotinylated (sites not given))
T1 construct: not shown: glutathione S-transferase (GST) fusion partner
T1 sequence (looked up) 1: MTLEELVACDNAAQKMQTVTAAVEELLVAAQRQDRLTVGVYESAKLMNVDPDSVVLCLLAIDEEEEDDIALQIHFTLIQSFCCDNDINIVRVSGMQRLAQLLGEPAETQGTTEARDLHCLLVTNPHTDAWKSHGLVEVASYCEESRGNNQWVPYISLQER
T1 sequence (looked up) 2: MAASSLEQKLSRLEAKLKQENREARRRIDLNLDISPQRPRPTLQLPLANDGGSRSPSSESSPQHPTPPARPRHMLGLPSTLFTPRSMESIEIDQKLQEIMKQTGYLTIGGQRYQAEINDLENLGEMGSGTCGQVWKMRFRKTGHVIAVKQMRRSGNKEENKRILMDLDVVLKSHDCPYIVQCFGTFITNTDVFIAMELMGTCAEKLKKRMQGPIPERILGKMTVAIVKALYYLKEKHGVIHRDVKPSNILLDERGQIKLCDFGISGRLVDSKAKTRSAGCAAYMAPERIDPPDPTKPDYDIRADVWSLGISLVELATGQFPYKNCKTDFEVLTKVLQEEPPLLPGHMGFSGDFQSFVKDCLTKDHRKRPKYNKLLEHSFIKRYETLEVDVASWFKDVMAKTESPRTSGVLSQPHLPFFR

T2: Gadd45β/MKK7 complex (biotin-hGadd45β with coated GST-MKK7, ELISA format) (human) (UniProt O75293)
T2 sequence (biotinylated (sites not stated), looked up) 1: T1 sequence (looked up) 1
T2 sequence (biotinylated (sites not stated), looked up) 2: T1 sequence (looked up) 2


The molecules below were run against T1, Gadd45β/MKK7 complex (biotin-hGadd45β …) (assay: competition ELISA; coated GST-MKK7, biotin-hGadd45β; single dose).

Molecule	% Inhibition of Gadd45β-MKK7 binding
Ac-YDRF-NH2 [Ac-YDRF-NH2]	45%
Ac-WEHW-NH2 [Ac-WEHW-NH2]	75%
Ac-WDRW-NH2 [Ac-WDRW-NH2]	93%
Ac-WDHF-NH2 [Ac-WDHF-NH2]	28%
Ac-WERW-NH2 [Ac-WERW-NH2]	69%
Ac-WEKF-NH2 [Ac-WEKF-NH2]	65%
Ac-YDHW-NH2 [Ac-YDHW-NH2]	58%
Ac-YEHW-NH2 [Ac-YEHW-NH2]	64%
Ac-WDKF-NH2 [Ac-WDKF-NH2]	26%
Ac-YDRW-NH2 [Ac-YDRW-NH2]	43%
Ac-WERF-NH2 [Ac-WERF-NH2]	29%
Ac-WDRF-NH2 [Ac-WDRF-NH2]	46%
Ac-YDKF-NH2 [Ac-YDKF-NH2]	35%
Ac-WEKW-NH2 [Ac-WEKW-NH2]	65%
Ac-YEKW-NH2 [Ac-YEKW-NH2]	27%
Ac-YERW-NH2 [Ac-YERW-NH2]	59%
Ac-WDHW-NH2 [Ac-WDHW-NH2]	50%
Ac-YDKW-NH2 [Ac-YDKW-NH2]	23%
Ac-WEHF-NH2 [Ac-WEHF-NH2]	36%
Ac-WDKW-NH2 [Ac-WDKW-NH2]	69%
Ac-YEKF-NH2 [Ac-YEKF-NH2]	64%

Target: T1, Gadd45β/MKK7 complex (biotin-hGadd45β …)
Assay: as above
Remark: another data set of the same source

Molecule	% Inhibition of Gadd45β-MKK7 binding
Cbz-YDHF-NH2 (also called Z-LTP1) [Z-YDHF-NH2]	84%
ClZ-YDHQ-NH2 [2CI-Z-YDHQ-NH2]	40%
Myr-YDHQ-NH2 [Myr-YDHQ-NH2]	28%
Cbz-YDHQ-NH2 [Z-YDHQ-NH2]	13%
Ac-PERF-NH2 [Ac-PERF-NH2]	24%
Ac-YEAF-NH2 [Ac-YEAF-NH2]	13%
Ac-YDRF-NH2 [Ac-YDRF-NH2]	19%
Fmoc-YERF-NH2 [Fmoc-YERF-NH2]	60%
Bz-YERF-NH2 [Benzoic acid-YERF-NH2]	24%
Cbz-YERF-NH2 (also called Z-LTP2) [Z-YERF-NH2]	78%
ClZ-YERF-NH2 [2CI-Z-YERF-NH2]	38%
Ac-YEPF-NH2 [Ac-YEPF-NH2]	13%
Myr-YERF-NH2 [Myr-YERF-NH2]	37%
Ac-YARF-NH2 [Ac-YARF-NH2]	17%
{3‑OH‑4MeO‑benzoic acid}-YERF-NH2 [3-OH-4MeO-Benzoid acid-YERF-NH2]	86%
Ac-YPRF-NH2 [Ac-YPRF-NH2]	13%
Ac-YERA-NH2 [Ac-YERA-NH2]	28%
Ac-YERP-NH2 [Ac-YERP-NH2]	0%
Myr-YDHF-NH2 [Myr-YDHF-NH2]	26%
Bz-YDHF-NH2 [Benzoic acid-YDHF-NH2]	0%
Cbz-YD(OMe)HF-NH2 [Z-YD(OMe)HF-NH2]	84%
ClZ-YDHF-NH2 [2CI-Z-YDHF-NH2]	38%
{3‑hydroxy‑4‑methoxybenzoyl}-YDHF-NH2 [3-OH-4MeO-Benzoid acid-YDHF-NH2]	81%
Fmoc-YDHF-NH2 [Fmoc-YDHF-NH2]	58%

What follows are molecules tested against T2, Gadd45β/MKK7 complex (biotin-hGadd45β with coated GST-MKK7, ELISA format) (human) (assay: competition ELISA; coated GST-MKK7 42 nM, biotin-hGadd45β 21 nM).

Molecule	IC50
Ac-Tyr-Asn-Phe-NH2 (peptide)	1.9 nM
Ac-YPF-NH2 (peptide)	0.645 nM
Z-Tyr-Glu-Phe-NH2 (mDTP2) (peptide)	0.158 nM
Ac-Tyr-Arg-[Cha]	> 5 nM
AC-Tyr-Met-Phe-NH2 (peptide)	> 10 nM
H-YRY-NH2 (peptide)	0.75 nM
Ac-YRY-NH2 (peptide)	0.758 nM
Ac-YHF-NH2 (peptide)	0.69 nM
Cbz-Tyr-Asp-Phe-NH2	0.162 nM
Ac-[Cha]-Arg-Phe-NH2	> 5 nM
Ac-Tyr-Gln-Phe-NH2 (peptide)	> 10 nM
Cbz-Tyr-Arg-Phe-NH2	0.1 nM
H-YHF-NH2 (peptide)	0.645 nM
Ac-Tyr-Leu-Phe-NH2 (peptide)	1.8 nM
Ac-[dY][dL][dR][dF]-NH2 (also: D/L configuration not given here) [Ac-Tyr-Leu-Arg-Phe-NH2]	5 nM
Cbz-[dY][dD][dH][dQ]-NH2 [Z-Tyr-Asp-His-Gln-NH2]	> 10 nM
Cbz-[dY][dY][dD][dH][dQ]-NH2 [Z-Tyr-Tyr-Asp-His Gln-NH2]	> 10 nM
Ac-[dY][dY][dR][dF]-NH2 (also: D/L configuration not given here) [Ac-Tyr-Tyr-Arg-Phe-NH2]	> 5 nM
Ac-[dY][dM][dR][dF]-NH2 (also: D/L configuration not given here) [Ac-Tyr-Met-Arg-Phe-NH2]	> 10 nM
Cbz-[dY][dY][dE][dR][dF]-NH2 [Z-Tyr-Tyr-Glu-Arg-Phe-NH2]	> 5 nM
Ac-[dY][dN][dR][dF]-NH2 (also: D/L configuration not given here) [Ac-Tyr-Asn-Arg-Phe-NH2]	10 nM
Ac-[dY][dQ][dR][dF]-NH2 (also: D/L configuration not given here) [Ac-Tyr-Gln-Arg-Phe-NH2]	5 nM
